From patent US20050013820A1 (REGENTS OF THE UNIVERSITY OF MICHIGAN, published 2005)
Each block holds one binder with its values, some of them ahead of it.

Assays:
[1] = target: T1, cell surface calreticulin on human fibroblastoid M1 cells (human, UniProt P27797 18-417); assay: cell-based or functional assay
T1 sequence (looked up): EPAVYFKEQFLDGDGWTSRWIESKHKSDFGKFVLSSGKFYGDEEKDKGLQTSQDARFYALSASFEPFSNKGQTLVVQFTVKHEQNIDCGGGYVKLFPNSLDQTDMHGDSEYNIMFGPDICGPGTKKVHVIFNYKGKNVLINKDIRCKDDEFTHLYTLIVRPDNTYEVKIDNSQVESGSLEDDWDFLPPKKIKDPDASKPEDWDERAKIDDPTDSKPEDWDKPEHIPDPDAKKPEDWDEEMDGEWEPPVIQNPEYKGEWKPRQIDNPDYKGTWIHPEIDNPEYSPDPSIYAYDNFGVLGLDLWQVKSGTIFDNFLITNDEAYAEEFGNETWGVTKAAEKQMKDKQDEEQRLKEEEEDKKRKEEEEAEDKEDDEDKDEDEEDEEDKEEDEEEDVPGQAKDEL

[2] = target: T2, recombinant human calreticulin (human, UniProt P27797 18-417); assay: SPR (Biacore 2000), calreticulin immobilized on CM5
T2 construct: Expressed in E. coli as a GST fusion; also called Crt; purified recombinant calreticulin
T2 sequence: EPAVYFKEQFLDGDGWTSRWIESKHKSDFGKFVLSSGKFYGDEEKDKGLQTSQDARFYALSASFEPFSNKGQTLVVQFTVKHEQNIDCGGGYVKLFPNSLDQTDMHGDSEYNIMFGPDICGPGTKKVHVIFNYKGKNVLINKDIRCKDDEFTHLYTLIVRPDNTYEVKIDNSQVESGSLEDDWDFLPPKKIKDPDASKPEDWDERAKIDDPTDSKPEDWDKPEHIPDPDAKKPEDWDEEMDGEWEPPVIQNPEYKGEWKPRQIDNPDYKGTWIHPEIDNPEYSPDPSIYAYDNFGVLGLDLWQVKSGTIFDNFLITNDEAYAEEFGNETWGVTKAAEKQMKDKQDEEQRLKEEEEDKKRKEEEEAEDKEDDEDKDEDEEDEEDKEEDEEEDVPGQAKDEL
Protocol: Prior to use, biosensor chips CM5 were docked into a Biacore® 2000 and preconditioned in water at 100 μl/min by applying two consecutive 20-μl pulses of 50 mM NaOH, then 10 mM HCl, and finally 0.1% SDS. […] Immobilizations were conducted at 25° C. in HBS-EP (10 mM HEPES, pH7.4, 150 mM NaCl, 1 mM EDTA, 0.005% Surfactant P-20), with a flow of 10 μl/min. The CM5 surface was activated by 7 min injection of 200 mM EDC/50 mM NHS to prepare a high-capacity surface, with manual injection of 100 μg/ml calreticulin until 5500 RU level was approached. Then 100 μl of 1M ethanolamine was used to block remaining activated group.
Calreticulin and peptide binding were performed at 25° C. in binding buffer (10 mM HEPES, pH8.0, 50 mM KCl, 0.5 mM CaCl₂, 1% Triton-X100), with a flow rate of 10 μl/min. […] Binding assays were repeated at least 3 times. Kinetic analysis was performed using Kinetic separate kₐ/kd fitting in BIA evaluation 3.0 software.

inhibition of NO induction by Sepharose bead-bound 65-79*0401 in M1 cells; IC50 [1]: ~35 µM
Binder: DKCLA [pentapeptide DKCLA]

binding result [2]: no binding
Binder: QKRAE (Synthetic pentapeptide) [pentapeptide QKRAE]

inhibition of cAMP-mediated (2CA-induced) DNA repair induction in cells; IC50 [1]: ~0.25 µM
Binder: KDLLEQKRAAVDTY [peptide 65-78*0401]
